# In PMC13136903, “Zα and Zβ domains of ADAR1 and ZBP1 bind G-quadruplexes with nanomolar affinities, establishing Zβ as a G-quadruplex-specific domain”:
# T1: ADAR1 Zα (Homo sapiens, UniProt P55265 139-202)
# T1 sequence: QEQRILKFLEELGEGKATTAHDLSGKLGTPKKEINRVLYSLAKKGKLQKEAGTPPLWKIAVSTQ
# T2: ADAR1 Zβ (Homo sapiens, UniProt P55265 291-366)
# T2 sequence: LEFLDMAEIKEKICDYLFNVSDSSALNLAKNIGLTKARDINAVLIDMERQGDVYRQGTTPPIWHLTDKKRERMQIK
# T3: ZBP1 Zα1 (Homo sapiens, UniProt Q9H171 1-70)
# T3 sequence: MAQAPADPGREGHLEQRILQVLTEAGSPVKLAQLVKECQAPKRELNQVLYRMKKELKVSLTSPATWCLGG
# What was measured:
# [1] = tested on: GV2 Zα (giant virus Zα domain) (giant virus (metagenome)); test: MST; conditions: 20 mM NaPi pH 6.4, 100 mM KCl, 1 mM DTT, 0.5 mM EDTA (LiCl replaces KCl where noted); ITC 35 C; MST 25 C with 20 nM protein (labelling without DTT; competition …)
# ADAR1 Zα [2] = molecular target: T1, ADAR1 Zα; test: NMR; 30 µM RNA; CSPs similar to UUACCG at 100 µM; 20 mM NaPi pH 6.4, 100 mM KCl, 1 mM DTT, 0.5 mM EDTA (LiCl replaces KCl where noted); ITC 35 C; MST 25 C with 20 nM protein (labelling without DTT); competition; conditions: protein: recombinant; tags: N-terminal 6xHis, thrombin site, T7 tag; predominantly single strand at 30 µM
# ADAR1 Zβ [3] = molecular target: T2, ADAR1 Zβ; test: MST; ligand-depletion range, may not be exact; 20 mM NaPi pH 6.4, 100 mM KCl, 1 mM DTT, 0.5 mM EDTA (LiCl replaces KCl where noted); ITC 35 C; MST 25 C with 20 nM protein (labelling without DTT); competition; conditions: protein: recombinant; tags: N-terminal 6xHis, thrombin site, T7 tag; parallel G4
# ADAR1 Zα [4] = molecular target: T1, ADAR1 Zα; test: MST; 20 mM NaPi pH 6.4, 100 mM KCl, 1 mM DTT, 0.5 mM EDTA (LiCl replaces KCl where noted); ITC 35 C; MST 25 C with 20 nM protein (labelling without DTT); competition; conditions: protein: recombinant, tags: N-terminal 6xHis, thrombin site, T7 tag
# ADAR1 Zα [5] = molecular target: T1, ADAR1 Zα; test: NMR; 100 µM RNA; CSPs similar to ssUUAGGG; 20 mM NaPi pH 6.4, 100 mM KCl, 1 mM DTT, 0.5 mM EDTA (LiCl replaces KCl where noted); ITC 35 C; MST 25 C with 20 nM protein (labelling without DTT); competition; conditions: protein: recombinant; tags: N-terminal 6xHis, thrombin site, T7 tag; chain copies: 2
# ADAR1 Zβ [6] = molecular target: T2, ADAR1 Zβ; test: NMR; 100 µM RNA; large CSP increase; 20 mM NaPi pH 6.4, 100 mM KCl, 1 mM DTT, 0.5 mM EDTA (LiCl replaces KCl where noted); ITC 35 C; MST 25 C with 20 nM protein (labelling without DTT); competition; conditions: protein: recombinant; tags: N-terminal 6xHis, thrombin site, T7 tag
# ZBP1 Zα1 = molecular target: T3, ZBP1 Zα1; test: NMR; significant peak disappearance; LLPS; 20 mM NaPi pH 6.4, 100 mM KCl, 1 mM DTT, 0.5 mM EDTA (LiCl replaces KCl where noted); ITC 35 C; MST 25 C with 20 nM protein (labelling without DTT); competition; conditions: protein: recombinant; tags: N-terminal 6xHis, thrombin site, T7 tag; parallel G4
# ADAR1 Zβ [7] = molecular target: T2, ADAR1 Zβ; test: ITC; 35 C; N=1.12; 20 mM NaPi pH 6.4, 100 mM KCl, 1 mM DTT, 0.5 mM EDTA (LiCl replaces KCl where noted); ITC 35 C; MST 25 C with 20 nM protein (labelling without DTT); competition; conditions: protein: recombinant; tags: N-terminal 6xHis, thrombin site, T7 tag; parallel G4
# ADAR1 Zα [8] = molecular target: T1, ADAR1 Zα; test: ITC; 35 C; N=1.44; 20 mM NaPi pH 6.4, 100 mM KCl, 1 mM DTT, 0.5 mM EDTA (LiCl replaces KCl where noted); ITC 35 C; MST 25 C with 20 nM protein (labelling without DTT); competition; conditions: protein: recombinant; tags: N-terminal 6xHis, thrombin site, T7 tag; chain copies: 2; parallel G4
# ADAR1 Zβ [9] = molecular target: T2, ADAR1 Zβ; test: MST; 20 mM NaPi pH 6.4, 100 mM KCl, 1 mM DTT, 0.5 mM EDTA (LiCl replaces KCl where noted); ITC 35 C; MST 25 C with 20 nM protein (labelling without DTT); competition; conditions: protein: recombinant; tags: N-terminal 6xHis, thrombin site, T7 tag; parallel G4
# ADAR1 Zα [10] = molecular target: T1, ADAR1 Zα; test: NMR; extensive peak shifts; 20 mM NaPi pH 6.4, 100 mM KCl, 1 mM DTT, 0.5 mM EDTA (LiCl replaces KCl where noted); ITC 35 C; MST 25 C with 20 nM protein (labelling without DTT); competition; conditions: protein: recombinant; tags: N-terminal 6xHis, thrombin site, T7 tag; no G4; transient structure
molecule,measurement,setting,value
GGGAGGGCGGGAGGG [ALU-GQRNA],Kd,[1],1000 nM
UUAGGG (ssRNA) [ssUUAGGG 6-mer (30 µM)],binding result,ADAR1 Zα [2],binds
UUAGGGUUAGGGUUAGGGUUAGGG (structured_RNA) [TERRA-GQRNA],Kd,ADAR1 Zβ [3],4.2 ± 2.2 nM
same,Kd,"ADAR1 Zα [4]; chain copies: 2, parallel G4",19.3 ± 13.7 nM
UUAGGG (structured_RNA) [GQ-UUAGGG 6-mer (100 µM)],binding result,ADAR1 Zα [5],binds
same,binding result,ADAR1 Zβ [6],binds
GGGAGGGCGGGAGGG (structured_RNA) [ALU-GQRNA],binding result,ZBP1 Zα1,binds
same,Kd,ADAR1 Zβ [7],1810 ± 300 nM
same,Kd,ADAR1 Zα [8],430 ± 100 nM
same,Kd,"ADAR1 Zα [4]; chain copies: 2, parallel G4",116 ± 69.3 nM
same,Kd,ADAR1 Zβ [9],336 ± 181 nM
CCGACCGCCCGACCG (ssRNA) [ALU-mutRNA],binding result,ADAR1 Zα [10],binds
UUACCGUUACCGUUACCGUUACCG (ssRNA) [TERRA-mutRNA],Kd,"ADAR1 Zα [4]; no G4, transient structure",35.9 ± 8.9 nM
